Laboratory results taken from US20050260210A1 (FACET BIOTECH, published 2005).
One block for each binder: values may come before it.

Biological target: T1, mouse α5β1 integrin (mouse, UniProt P11688 45-1053; P09055 21-798)
T1 construct: Named as present on mouse xenograft tumor vasculature
Experiment: not described

T1 sequence (P11688 45-1053, chain 1 of 2): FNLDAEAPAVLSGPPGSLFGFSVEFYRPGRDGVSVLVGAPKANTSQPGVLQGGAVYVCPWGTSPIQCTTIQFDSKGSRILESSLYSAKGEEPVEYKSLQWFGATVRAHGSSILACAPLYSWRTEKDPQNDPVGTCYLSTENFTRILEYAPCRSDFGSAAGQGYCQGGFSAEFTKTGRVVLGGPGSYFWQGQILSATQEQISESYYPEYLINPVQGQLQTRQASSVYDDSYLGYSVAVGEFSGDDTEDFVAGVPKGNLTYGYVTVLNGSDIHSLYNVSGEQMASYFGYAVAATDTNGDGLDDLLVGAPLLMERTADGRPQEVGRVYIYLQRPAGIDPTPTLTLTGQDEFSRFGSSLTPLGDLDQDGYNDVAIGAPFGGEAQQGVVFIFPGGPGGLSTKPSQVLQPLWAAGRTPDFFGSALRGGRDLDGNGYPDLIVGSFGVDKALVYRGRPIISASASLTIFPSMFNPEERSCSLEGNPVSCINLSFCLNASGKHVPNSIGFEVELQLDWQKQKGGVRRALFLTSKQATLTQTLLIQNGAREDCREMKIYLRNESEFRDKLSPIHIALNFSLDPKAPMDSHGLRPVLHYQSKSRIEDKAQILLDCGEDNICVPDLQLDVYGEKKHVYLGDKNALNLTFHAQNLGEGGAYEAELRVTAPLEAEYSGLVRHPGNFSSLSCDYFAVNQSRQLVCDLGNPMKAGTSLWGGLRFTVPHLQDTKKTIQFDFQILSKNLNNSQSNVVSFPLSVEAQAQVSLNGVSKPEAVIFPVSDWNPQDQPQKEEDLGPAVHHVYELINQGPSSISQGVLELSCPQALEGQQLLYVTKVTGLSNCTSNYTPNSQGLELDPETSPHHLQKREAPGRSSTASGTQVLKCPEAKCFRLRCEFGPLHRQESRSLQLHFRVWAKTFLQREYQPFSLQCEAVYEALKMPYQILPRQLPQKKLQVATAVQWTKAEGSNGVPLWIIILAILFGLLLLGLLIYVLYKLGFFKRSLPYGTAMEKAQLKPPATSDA
T1 sequence (P09055 21-798, chain 2 of 2): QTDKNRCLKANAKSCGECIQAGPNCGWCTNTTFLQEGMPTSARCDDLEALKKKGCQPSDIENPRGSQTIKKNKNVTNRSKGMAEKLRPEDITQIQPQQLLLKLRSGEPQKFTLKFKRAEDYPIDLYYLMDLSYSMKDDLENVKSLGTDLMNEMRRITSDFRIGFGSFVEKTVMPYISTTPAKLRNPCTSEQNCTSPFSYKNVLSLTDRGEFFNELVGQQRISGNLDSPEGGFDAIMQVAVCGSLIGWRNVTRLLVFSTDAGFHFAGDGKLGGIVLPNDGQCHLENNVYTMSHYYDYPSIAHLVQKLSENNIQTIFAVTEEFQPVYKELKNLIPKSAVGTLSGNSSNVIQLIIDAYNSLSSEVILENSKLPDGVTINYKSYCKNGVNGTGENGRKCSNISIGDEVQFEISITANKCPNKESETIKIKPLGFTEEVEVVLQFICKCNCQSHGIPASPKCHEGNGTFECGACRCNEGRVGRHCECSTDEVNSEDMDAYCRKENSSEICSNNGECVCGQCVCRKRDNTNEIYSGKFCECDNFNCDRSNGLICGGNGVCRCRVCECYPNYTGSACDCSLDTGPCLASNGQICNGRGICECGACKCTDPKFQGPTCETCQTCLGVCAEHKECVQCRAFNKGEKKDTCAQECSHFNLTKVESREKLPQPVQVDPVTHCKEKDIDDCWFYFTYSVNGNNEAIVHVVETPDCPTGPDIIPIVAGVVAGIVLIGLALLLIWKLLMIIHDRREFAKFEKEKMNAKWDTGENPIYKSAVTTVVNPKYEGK

- binding result: no binding
B1: IIA1, anti-α5β1 mouse antibody (antibody, mouse IgG1, V domains shown)
VH: QVQLKESGPGLVAPSQSLSITCTISGFSLTDYGVHWVRQPPGKGLEWLVVIWSDGSSTYNSALKSRMTIRKDNSKSQVFLIMNSLQTDDSAMYYCARHGTYYGMTTTGDALDYWGQGTSVTVSS
VL: QIVLTQSPAIMSASLGERVTMTCTASSSVSSNYLHWYQQKPGSAPNLWIYSTSNLASGVPARFSGSGSGTSYSLTISSMEAEDAATYYCHQYLRSPPTFGGGTKLEIK
notes: also called mouse anti-α5β1 antibody

- binding result: no binding
B2: M200, chimeric anti-α5β1 antibody (antibody, IgG4, V domains shown)
VH: B1 VH
VL: B1 VL
notes: also called volociximab
